Results published in PMC5103072, “Cryo-EM study of start codon selection during archaeal translation initiation” (Nature Communications, 2016).

Target: T1, Pa-aIF2γ (γ-subunit of archaeal translation initiation factor 2 from Pyrococcus abyssi), native version (Pyrococcus abyssi, UniProt Q9V1G0 1-411)
T1 construct: aIF2 γ-subunit from Pyrococcus abyssi, native (untagged) version; Stood in the assay as part of the aIF2 heterotrimer with GDPNP and Met-tRNA; The deposited models use the S. solfataricus ternary complex (PDB 3V11) as the fitted component; source: cells overproducing the subunit, mixed with cells overproducing α and β; heterotrimer purified (heating at 80 °C, Q-Hiload, S-Hiload, Superdex 200)
T1 sequence (looked up): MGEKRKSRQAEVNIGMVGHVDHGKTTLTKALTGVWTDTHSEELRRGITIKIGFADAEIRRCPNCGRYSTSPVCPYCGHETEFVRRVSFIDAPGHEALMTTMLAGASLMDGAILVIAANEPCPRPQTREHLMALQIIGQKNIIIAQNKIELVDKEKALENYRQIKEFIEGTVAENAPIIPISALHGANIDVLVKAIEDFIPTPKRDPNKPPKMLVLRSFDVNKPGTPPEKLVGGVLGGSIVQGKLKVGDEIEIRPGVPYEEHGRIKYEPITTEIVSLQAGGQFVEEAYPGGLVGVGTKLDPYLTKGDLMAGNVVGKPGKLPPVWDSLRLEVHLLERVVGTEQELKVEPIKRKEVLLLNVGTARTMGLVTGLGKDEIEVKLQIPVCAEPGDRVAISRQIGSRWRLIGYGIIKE
Experiment: cryo-EM structure; full 30S initiation complex (Pa-30S, synthetic mRNA, Met-tRNAfMet A1-U72, GDPNP, Pa-aIF1, Pa-aIF1A, Pa-aIF2) assembled at 51 °C in IC buffer (10 mM Hepes pH 7.5, 100 mM NH4Cl, 10 mM magnesium acetate, 3 mM 2-mercaptoethanol), purified on Talon; class IC0-P_(REMOTE), tRNA out of the P site, 5.34 Å overall resolution; known structures of homologous components fitted
Conditions: both partners purified

B1: Pa-aIF2α (α-subunit of archaeal translation initiation factor 2 from Pyrococcus abyssi), N-terminally tagged version (natural protein, UniProt Q9V0E4 1-275, looked up)
chain: MPRRAREYPEEGEFVVATVKRIHNYGAFLELDEYPGKEAFMHISEVASTWVRNIRDYLKEGQKVVAKVIRVDPRKGHIDLSLRRVTQQQRKAKLQEFKRAQKAENLLKLAAEKLGKDFETAWREVWVPLEEEWGEVYAAFEDAAKDGIDVLKGHVPDEWLPVLKEIIDNYVEVPTVTIDAEFEITVPKPNGVEIIKEALIRARDRANKEKDVEVKFTYLGAPRYRIDITAPDYYKAEEVLESIAEEILRVIKEAGGEATLLRKEKRIKKVKKRKK
notes: aIF2 α-subunit from Pyrococcus abyssi, N-terminally tagged version; domains 1 and 2 (aIF2α-D12) and domain 3 (aIF2α-D3); the complex was purified on a Talon column by it; Stood in the assay as part of the aIF2 heterotrimer; source: cells overproducing the subunit, mixed with cells overproducing β and γ; heterotrimer purified (heating at 80 °C, Q-Hiload, S-Hiload, Superdex 200)
- binding result: binds
